The values that follow come from IntAct's records for PubMed 26040717.

The labels stand for the following.
B1: Autophagy-related protein 39 (Saccharomyces cerevisiae), Q06159 (parent)
chain: MSEEDDHWNLVRLRRLRKGREGEEQSSKSEISLDSLHESSFAGEDDEDFDADVLSNTSSEESAQMNRIYDFRTSNEFSNAGVNIDQTGVPTISESFDTLSGSNVGGTVLPSMEGSKLKDSTIRNSSTLSDHIIDKSEGKSAKLKMWHVIMLSSLLSMTFSYLALEYSLTGDVLAGFKSQQSLRNNERKLLYGNIDFVDKKSYDSSSDSLSQWAPSGKYYVDFDNHIAYPLKDDDLMGWRRYKTDLVILWYTTKARMKDGWHKRINKINGGRIKLHLFLKNSFKSAQESLRVLHKEQKRRWKRLFVLLHNKYRQFSPHIKRYFDHSCQKAKQCWSGSRLQLRKLRFKSMKPFRVFQFKVRKDTNWFVKQLKRFGLKLQHSRMYKAMSECRKKNYFKCKH
partner: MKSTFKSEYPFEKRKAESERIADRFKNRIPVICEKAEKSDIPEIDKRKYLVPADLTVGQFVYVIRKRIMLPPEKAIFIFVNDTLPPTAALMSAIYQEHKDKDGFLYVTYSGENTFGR
B2: Autophagy-related protein 8 (Saccharomyces cerevisiae), P38182 (parent)
chain: B1 partner
partner: B1 chain
B3: Autophagy-related protein 40 (Saccharomyces cerevisiae), Q99325 (parent)
chain: MFNLILWPLFLLTSVAIPLQLTLEVVYLTSSVDFSKASAAKTATSLGQSPVVITIYKSLLKYWSLYEFIHFIYLYTPIDAFLNFLPFTSLLMSFGSICLTRELVYDFIAFMESQNKLTGFLNKITEPNFNSYLLFSSIYNIWFADDTNDKFLFGKLTQILISVTKRYEFPRTFYLAKVSDFLQNLILTRLRPFVTEQPQGDKNRYQNGDRESTKNGAAYQKSSQQSSSFEQNFTSTEFPNDYDFMEDILDETTELD
partner: B1 partner
B4: Autophagy-related protein 8 (Saccharomyces cerevisiae), P38182 (parent)
chain: B1 partner
partner: B3 chain
B5: Autophagy-related protein 39 (Saccharomyces cerevisiae), Q06159 (parent)
chain: B1 chain
partner: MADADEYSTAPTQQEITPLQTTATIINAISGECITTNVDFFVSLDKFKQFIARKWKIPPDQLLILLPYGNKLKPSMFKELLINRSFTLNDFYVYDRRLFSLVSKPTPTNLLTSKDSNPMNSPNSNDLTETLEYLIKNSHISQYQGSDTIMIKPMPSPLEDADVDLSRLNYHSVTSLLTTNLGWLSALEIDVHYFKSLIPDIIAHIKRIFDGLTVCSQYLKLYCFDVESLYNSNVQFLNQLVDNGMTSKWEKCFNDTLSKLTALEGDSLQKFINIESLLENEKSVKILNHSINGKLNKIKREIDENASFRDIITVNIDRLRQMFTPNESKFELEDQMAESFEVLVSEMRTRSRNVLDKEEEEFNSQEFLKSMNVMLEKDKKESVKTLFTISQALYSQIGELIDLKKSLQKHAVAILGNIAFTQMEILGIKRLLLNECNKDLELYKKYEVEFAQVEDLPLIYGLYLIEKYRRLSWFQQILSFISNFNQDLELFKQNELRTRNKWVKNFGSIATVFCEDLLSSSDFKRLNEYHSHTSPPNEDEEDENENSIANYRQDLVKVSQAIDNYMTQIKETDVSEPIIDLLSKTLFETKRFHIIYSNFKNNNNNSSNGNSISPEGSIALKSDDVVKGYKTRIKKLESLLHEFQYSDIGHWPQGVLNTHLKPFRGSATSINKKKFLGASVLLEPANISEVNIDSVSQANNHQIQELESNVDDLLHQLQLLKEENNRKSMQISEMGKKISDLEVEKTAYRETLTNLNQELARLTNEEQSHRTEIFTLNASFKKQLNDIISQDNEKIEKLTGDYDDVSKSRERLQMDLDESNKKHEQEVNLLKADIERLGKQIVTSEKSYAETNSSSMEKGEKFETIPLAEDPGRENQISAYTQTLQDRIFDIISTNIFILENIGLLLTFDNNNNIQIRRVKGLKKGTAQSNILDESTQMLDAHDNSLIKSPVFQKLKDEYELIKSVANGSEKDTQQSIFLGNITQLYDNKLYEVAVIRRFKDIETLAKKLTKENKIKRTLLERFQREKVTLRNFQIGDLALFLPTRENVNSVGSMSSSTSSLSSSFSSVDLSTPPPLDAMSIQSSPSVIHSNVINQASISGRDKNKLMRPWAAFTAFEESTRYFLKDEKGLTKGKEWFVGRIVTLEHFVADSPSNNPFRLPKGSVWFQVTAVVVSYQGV

Variants of B1 are the subject of the first assay. To be noted: with atg8_yeast ATG8, P38182.
As for MSEEDDHANLARLRRLRKGREGEEQSSKSEISLDSLHESSFAGEDDEDFDADVLSNTSSEESAQMNRIYDFRTSNEFSNAGVNIDQTGVPTISESFDTLSGSNVGGTVLPSMEGSKLKDSTIRNSSTLSDHIIDKSEGKSAKLKMWHVIMLSSLLSMTFSYLALEYSLTGDVLAGFKSQQSLRNNERKLLYGNIDFVDKKSYDSSSDSLSQWAPSGKYYVDFDNHIAYPLKDDDLMGWRRYKTDLVILWYTTKARMKDGWHKRINKINGGRIKLHLFLKNSFKSAQESLRVLHKEQKRRWKRLFVLLHNKYRQFSPHIKRYFDHSCQKAKQCWSGSRLQLRKLRFKSMKPFRVFQFKVRKDTNWFVKQLKRFGLKLQHSRMYKAMSECRKKNYFKCKH [W8A;V11A], the “effect of a mutation on the interaction” value is on record as “disrupting interaction strength”.

In a further assay the parent is B2. To be noted: with atg39_yeast ATG39, Q06159.
On to MKSTFKSEYPFEKRKAESERIADRFKNRIPVICEKAEKSDIPEIDKRKYLVAADLTVGQFVYVIRKAIMLPPEKAIFIFVNDTLPPTAALMSAIYQEHKDKDGFLYVTYSGENTFGR, for which the “effect of a mutation on the interaction” value was “disrupting interaction strength”.

In a further assay the parent is B2. To be noted: with atg39_yeast ATG39, Q06159. The source holds these as a separate data set.
On to MKSTFKSEYPFEKRKAESERIADRFKNRIPVICEKAEKSDIPEIDKRKYLVAADLTVGQFVYVIRKAIMLPPEKAIFIFVNDTLPPTAALMSAIYQEHKDKDGFLYVTYSGENTFGR, for which the “effect of a mutation on the interaction” value is given as “decreasing interaction strength”.

The next assay covers variants of B3. To be noted: with atg8_yeast ATG8, P38182.
MFNLILWPLFLLTSVAIPLQLTLEVVYLTSSVDFSKASAAKTATSLGQSPVVITIYKSLLKYWSLYEFIHFIYLYTPIDAFLNFLPFTSLLMSFGSICLTRELVYDFIAFMESQNKLTGFLNKITEPNFNSYLLFSSIYNIWFADDTNDKFLFGKLTQILISVTKRYEFPRTFYLAKVSDFLQNLILTRLRPFVTEQPQGDKNRYQNGDRESTKNGAAYQKSSQQSSSFEQNFTSTEFPNDADFAEDILDETTELD [Y242A;M245A]: the “effect of a mutation on the interaction” value is given as “disrupting interaction strength”.

The variants in another assay derive from B4. To be noted: with atg40_yeast ATG40, Q99325.
Turning to MKSTFKSEYPFEKRKAESERIADRFKNRIPVICEKAEKSDIPEIDKRKYLVAADLTVGQFVYVIRKAIMLPPEKAIFIFVNDTLPPTAALMSAIYQEHKDKDGFLYVTYSGENTFGR, the “effect of a mutation on the interaction” value is on record as “disrupting interaction strength”.

The next assay covers variants of B5. As to conditions: with atg11_yeast ATG11, Q12527.
Take MSEEDDHWNLVRLRRLRKGREGEEQSSKSEISLDSLHESSFAGEDDEDFDAAAAAAAAAEESAQMNRIYDFRTSNEFSNAGVNIDQTGVPTISESFDTLSGSNVGGTVLPSMEGSKLKDSTIRNSSTLSDHIIDKSEGKSAKLKMWHVIMLSSLLSMTFSYLALEYSLTGDVLAGFKSQQSLRNNERKLLYGNIDFVDKKSYDSSSDSLSQWAPSGKYYVDFDNHIAYPLKDDDLMGWRRYKTDLVILWYTTKARMKDGWHKRINKINGGRIKLHLFLKNSFKSAQESLRVLHKEQKRRWKRLFVLLHNKYRQFSPHIKRYFDHSCQKAKQCWSGSRLQLRKLRFKSMKPFRVFQFKVRKDTNWFVKQLKRFGLKLQHSRMYKAMSECRKKNYFKCKH [D52A;V53A;L54A;S55A;N56A;T57A;S58A;S59A]: the “effect of a mutation on the interaction” value is given as “disrupting interaction strength”.
